From patent US20110053268A1, “METHOD FOR DIAGNOSIS OF ABNORMAL IRON METABOLISM USING ACTIVE HEPCIDIN AS INDICATOR” (priority 2006, published 2011) come the findings set out here.

Data set [1] in a line: Intravenous iron administration (iron loading) in a hemodialysis patient, serial serum profiling.
Description: Serum samples were obtained from 40 hemodialysis patients before and after hemodialysis. All patients were receiving hemodialysis treatment three times a week. In addition, serum samples were collected from patients with acute pyelonephritis (two patients), pneumonia (two patients), and sepsis (two patients), as well as from 16 healthy volunteers with normal renal function. Serial samples of serum and urine obtained from two patients with acute pyelonephritis and two hemodialysis patients who had received intravenous iron administration for iron deficiency were also analyzed. Red blood cell (RBC) count, hemoglobin (Hb), hematocrit (Ht), plasma iron, and ferritin were evaluated for the clinical assessment of iron status and anemia. Serum samples were separated by centrifugation (3,000 rpm) and stored at −80° C. until assayed. Informed consent for the analysis of the protein profiling of serum and/or urine was obtained from all the participants.
For preliminary trials, multiple types of protein chips were used with various surface characteristics, which included weak cation exchange, strong anion exchange, and immobilized metal affinity capture for protein molecules that bind divalent cationic copper. The present inventor eventually chose the mobilized metal affinity capture ProteinChip® array (IMAC 30-Cu) for the entire study because of its reproducibility in detecting protein species from serum and urine. SELDI analysis was performed according to the manufacturer's manual, with some modifications. In brief, serum and urine samples were diluted 20-fold and 10-fold, respectively, with binding buffer (phosphate buffered saline, pH 7.4). Using a bioprocessor, 40 μl of diluted samples were applied onto different arrays of an IMAC 30-Cu chip pretreated with 100 mM copper sulfate binding buffer and the chip was incubated at room temperature for 30 min with constant horizontal shaking. For confirmation of the reproducibility, each sample was applied to two separate spots on an IMAC 30-Cu chip. Unbound proteins were removed by washing three times with binding buffer for 5 min. […] Next, the arrays were analyzed using the Ciphergen ProteinChip® Reader PBS II. The proteins with CHCA were ionized and their molecular masses were determined by TOF analysis. The mass-to-charge ratio (m/z) of each of the proteins/peptides captured on the array surface was determined according to externally calibrated standards: Arg8-vasopressin (1,084.25 Da), somatostatin (1,637.9 Da), dynorphin (2,147.5 Da), bovine insulin beta-chain (3,495.94 Da), human insulin (5,807.65 Da), bovine ubiquitin (8,564.8 Da), and bovine cytochrome C (12,230.9 Da). […]
The target in a further data set is T1, IL-6 receptor (Homo sapiens, UniProt P08887).
T1 construct: before and after tocilizumab treatment in two Castleman's disease cases; from tissue; host or cells: patients with Castleman's disease (in vivo treatment)
T1 sequence (P08887 20-468): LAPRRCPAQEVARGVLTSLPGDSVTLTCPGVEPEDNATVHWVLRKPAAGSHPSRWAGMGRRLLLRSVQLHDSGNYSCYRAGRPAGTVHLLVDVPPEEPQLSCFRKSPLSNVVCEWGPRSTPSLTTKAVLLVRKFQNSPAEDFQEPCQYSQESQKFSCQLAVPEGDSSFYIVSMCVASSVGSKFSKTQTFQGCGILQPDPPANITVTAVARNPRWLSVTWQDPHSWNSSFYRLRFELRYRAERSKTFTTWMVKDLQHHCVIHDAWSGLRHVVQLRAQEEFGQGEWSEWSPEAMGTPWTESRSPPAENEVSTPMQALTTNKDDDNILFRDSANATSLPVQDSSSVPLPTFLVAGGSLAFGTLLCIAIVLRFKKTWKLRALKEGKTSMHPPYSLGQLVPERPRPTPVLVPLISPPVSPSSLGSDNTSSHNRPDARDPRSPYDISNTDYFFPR
The data set can be described thus: Tocilizumab treatment of two Castleman's disease cases, serum and urine hepcidin monitored by SELDI-TOF-MS. The class given is in vivo. Here is the method:
The present inventor monitored serum and urine hepcidin before and after tocilizumab treatment in two Castleman's disease cases who began treatment with tocilizumab (registered trademark: Actemra), from 7 days before treatment to 14 days after the start of the treatment. The measurement of hepcidin was performed in the manner described in Example 1.

Data set [2] in a line: Clearance of serum peptides by hemodialysis (SELDI-TOF-MS before and after hemodialysis). The class given is in vivo, human. The note with it: hemodialysis patients, serum before vs after hemodialysis.
Protocol: Serum samples were obtained from 40 hemodialysis patients before and after hemodialysis. All patients were receiving hemodialysis treatment three times a week. […] Serum samples were separated by centrifugation (3,000 rpm) and stored at −80° C. until assayed.
SELDI analysis was performed according to the manufacturer's manual, with some modifications. In brief, serum and urine samples were diluted 20-fold and 10-fold, respectively, with binding buffer (phosphate buffered saline, pH 7.4). Using a bioprocessor, 40 μl of diluted samples were applied onto different arrays of an IMAC 30-Cu chip pretreated with 100 mM copper sulfate binding buffer and the chip was incubated at room temperature for 30 min with constant horizontal shaking. For confirmation of the reproducibility, each sample was applied to two separate spots on an IMAC 30-Cu chip. Unbound proteins were removed by washing three times with binding buffer for 5 min. The arrays were rinsed twice with 400 μl of water, were air-dried, and 0.5 μl of alpha-cyano-4-hydroxy-cinnamic acid (CHCA; Ciphergen) in 50% acetonitrile and 0.5% trifluoroacetic acid was added twice onto the surface of the chip. Next, the arrays were analyzed using the Ciphergen ProteinChip® Reader PBS II. The proteins with CHCA were ionized and their molecular masses were determined by TOF analysis. The mass-to-charge ratio (m/z) of each of the proteins/peptides captured on the array surface was determined according to externally calibrated standards: Arg8-vasopressin (1,084.25 Da), somatostatin (1,637.9 Da), dynorphin (2,147.5 Da), bovine insulin beta-chain (3,495.94 Da), human insulin (5,807.65 Da), bovine ubiquitin (8,564.8 Da), and bovine cytochrome C (12,230.9 Da). The mass spectra of the samples were generated using an average of 80 laser shots at a laser intensity of 180 and a detector sensitivity of 10. Synthetic hepcidin-25 (Peptide Institute Inc, Osaka) was used as a marker of 2,789 Da. […]
Setting [3] is: case 1, day 3 after tocilizumab.

Entries after “also recorded” stand apart in the source; their conditions may differ.

With `[Fe]` [iron], in data set [1] (i.v. iron for eight weeks), the “expression of the serum 2,192 m/z peak (hepcidin-20)” value was “increased” and the “intensity of the serum peak at 2,789 m/z (hepcidin-25)” value is “increased gradually”. For the same molecule, the “serum ferritin level after iron administration” value in data set [1] (increased from 11.3 ng/ml, 40 mg iron i.v. twice a week for eight weeks, person on hemodialysis) came out at 273 ng/mL.
As to hepcidin, in the data set with IL-6 receptor (inferred from the drop in hepcidin after tocilizumab), the “half-life of hepcidin in serum” value is “short”.
Turning to “hepcidin-20 (ICIFCCGCCHRSKCGMCCKT; listed as Homo sapiens) [2,192 m/z]”, the “removal rate by hemodialysis” value in data set [2] was 45±19%.
For hepcidin-25 [2,789 m/z], the “removal rate by hemodialysis” value in data set [2] is listed as 46±23%; in data set [2] (listed as hepcidin-25) it was 46%.
Consider tocilizumab, for which, in the data set with IL-6 receptor (both Castleman's disease cases, within a single day after the first dose of tocilizumab), the “serum hepcidin-25 level” value is on record as “downregulation; also recorded: drastically reduced”. In the data set with IL-6 receptor (setting [3]), the “urine level of hepcidin-20” value is “dramatically reduced” and the “urine level of hepcidin-25” value was “dramatically reduced”. In addition, the “high CRP levels, anemia, and hypoalbuminemia” value in the data set with IL-6 receptor (cases 1 and 2, up to 14 days after start of treatment) was “alleviated”. Besides, in the data set with IL-6 receptor (cases 1 and 2 after tocilizumab), the serum ferritin level result is “reduced slowly”.
